pIC50, pKd: −log10 of the molar value. Each block holds one substance with its values, some of them ahead of it.
Key:
thrombin [1] = target: T1, thrombin (Homo sapiens, UniProt P00734); conditions: cited from earlier work
human prothrombin [2] = target: T2, human prothrombin (Homo sapiens, UniProt P00734); conditions: binding with human prothrombin; previous reports; cited from earlier work
human prothrombin [3] = target: T2, human prothrombin; experiment: 15N CPMG NMR relaxation dispersion of peptide ligand with human prothrombin, fitting of koff; type: binding
Description: Dried powder of the purified peptide was weighed using a Sartorius Supermicro S4™ balance and dissolved at ˜1.5 mM in an aqueous solution (10% D2O) that was 50 mM in NaCl and 50 mM in sodium phosphate at pH 5.5. Carefully measured volume aliquots of human prothrombin at a stock concentration of 0.3 mM were added to the peptide solution to produce molar ratios of ˜1:45, ˜1:35, and ˜1:30 for the prothrombin and peptide concentrations, respectively.
The core of the NMR relaxation dispersion measurements is the relaxation-compensated CPMG pulse scheme (FIG. 1) (Millet, O., Loria, J. P., Kroenke, C. D., Pons, M., and Palmer, A. G. (2000) J.Am.Chem.Soc. 122, 2867-2877; and Loria, J. P., Rance, M., and Palmer, A. G. (1999) J.Am.Chem.Soc. 121, 2331-2332). A train of ^15N 180° pulses with a separation of 1 ms is applied at 100 ppm off the center of the HSQC spectrum at the beginning of the recycle delay d1 such that the total number of ^15N 180° pulses, 4N, is kept the same for all experiments with different CPMG pulse repetition rates. An XY-16 180° pulse train (Gullion, T., Baker, D. B., and Conradi, M. S. (1990) J.Magn.Reson. 89, 479-484) is also applied to both the ^1H and ^15N nuclei during the two INEPT periods, which limits the decay of exchange-broadened ligand resonances. Further enhancement in sensitivity was achieved by using the 3919 WATERGATE sequence for water suppression (Piotto, M., Saudek, V., and Sklenar, V. (1992) J.Biomol.NMR 2, 661-665). The 90° and 180° RF pulses are represented by narrow and wide bars, respectively, applied along the +X axis unless specified otherwise. The open rectangles are water-selective soft pulses with duration of 2 ms. During data acquisition, ^15N decoupling is achieved using a GARP sequence (Shaka, A. J., Barker, P. B., and Freeman, R. (1985) J.Magn.Reson. 64, 547-552) with an RF field of 1.0 kHz (at 500 MHz) or 1.2 kHz (at 800 MHz). The delays are: Δ=2.7 ms, τ=1 ms, d2=d1-4(N-n)τ and τCPMG=(T/4n−pw180N), where T is the total duration of the ^15N CPMG pulse train and pw^180N is the width of the ^15N 180° pulse. Sinebell-shaped gradient pulses with a duration of 1 ms are used with gradient strengths of g1=5 G/cm, g2=6 G/cm, g3=1.2 G/cm, g4=6 G/cm, and g5=10 G/cm. The phases of some RF pulses are the same as those reported previously with φ1=+X−X, φ2=4(+X) 4(−X) and φ3=2(+X) 2(+Y) 2(−X) 2(−Y) (Millet, O., Loria, J. P., Kroenke, C. D., Pons, M., and Palmer, A. G. (2000) J.Am. Chem. Soc. 122, 2867-2877), except that the phases for the last ^15N 90° pulse, the WATERGATE sequence and the RF receiver are cycled as φ4=4(+X) 4(−X), φ5=8(+X) 8(+Y), φ6=8(−X) 8(−Y) and receiver=(+X−X−X+X) 2(−X+X+X−X) (+X−X−X+X). Phase-sensitive ^1H—^15N HSQC spectra were obtained by incrementing φ4, according to the States-TPPI scheme (Marion, D., Ikura, M., Tschudin, R., and Bax, A. (1989) J.Magn.Reson. 85, 393-). […] NMR data were collected at ^15N frequencies of 50.684 and 81.076 MHz using Bruker Avance/DRX 500 and 800 MHz NMR spectrometers. The total length of the ^15N CPMG pulse train, T (FIG. 1), is kept at a constant value of 40 ms and the total number (4N) of the ^15N CPMG 1800 pulses was set to 100.
For the specific application herein, values for koff, kon′, koff^1, koff^2, kon^−1, k1, k2, R2b(500 MHz), R2b(800 MHz), δωb, δωb1 and δωb2 (FIG. 2) were fitted as independent variables. Values kon^−2, pb, pb1, pb2, and pf=(1−pb1−pb2), with p standing for the population of the corresponding species, were derived using the condition of microscopic reversibility kijpi=kjipj, where kij denotes the exchange rate constant for the transformation of species i into species j.

thrombin [4] = target: T1, thrombin; experiment: Inhibition of human thrombin; type: biochemical; conditions: bivalent inhibitor of human thrombin
thrombin [5] = target: T1, thrombin; experiment: Proteolytic cleavage of FD22 by active thrombin; type: biochemical; design: in complex with human α-thrombin; conditions: peptide ~0.9 mM, 50 mM sodium phosphate, 0.2 mM EDTA, pH 5.5, active thrombin added
Description: Titration of the thrombin-cleaved FD22 peptide was carried out as follows. The sample of FD22 was concentrated by Speed-Vac to 40 μl and 180 μl of a concentrated thrombin solution were added to give a final thrombin:peptide ratio of approximately 1:20 in 60 mM sodium phosphate buffer, 0.2 mM EDTA, 10% D2O, at pH 5.5. Additional steps of thrombin titrations were carried out by the addition of the human […]-thrombin concentrated to ˜8 mg/ml.
FD22 has the sequence of Phe-Asp45-Pro-Arg-Pro-Gln-Ser50-His-Asn-Asp-Gly-Asp55-Phe-Glu-Glu-Ile-Pro60-Glu-Glu-Tyr-Leu-Gln65 (SEQ ID NO:20) and binds to thrombin via both the anion-binding exosite-I and the catalytic active site. The addition of active thrombin to the peptide FD22 (dissolved at a concentration of ˜0.9 mM in 50 mM sodium phosphate buffer, 10% D2O, 0.2 mM EDTA, at pH 5.5), caused slow and specific proteolytic cleavage at the Arg47-Pro48 peptide bond (taking >60 hours for the cleavage to complete). Upon completion of the cleavage, the sample contains a mixture of two peptides, Phe-Asp45-Pro-Arg (FD22-N) (SEQ ID NO:17) and Pro-Gln-Ser50-His-Asn-Asp-Gly-Asp55-Phe-Glu-Glu-Ile-Pro60-Glu-Glu-Tyr-Leu-Gln65 (FD22-C) (SEQ ID NO:18) that should bind separately to the active site and the anion-binding exosite I of thrombin.

human α-thrombin = target: T3, human α-thrombin (Homo sapiens, UniProt P00734); experiment: 15N CPMG NMR relaxation dispersion of peptide ligand with human thrombin, fitting of koff; type: binding; conditions: 288 K, two-site exchange
T3 construct: in complex with human α-thrombin

[6] = "linear" three-site exchange model, Phe56, Glu57, Ile59 simultaneously
[7] = general ("full") three-site exchange, Phe56, Glu57, Ile59 simultaneously
[8] = residue Glu57, "linear" three-site exchange model, exchange between bound states

k1 (human prothrombin [3]; [6]): 560 ± 510 s⁻¹
kex=k1+k2 (human prothrombin [3]; [6]): 700±500 s^1
k1 (human prothrombin [3]; [7]): 66 ± 57 s⁻¹
k2 (human prothrombin [3]; [7]): 110 ± 130 s⁻¹
kex=k1+k2 (human prothrombin [3]; [7]): 180 ± 150 s⁻¹
k1 (human prothrombin [3]; [8]): 50 ± 30 s⁻¹
k2 (human prothrombin [3]; [8]): 150 ± 70 s⁻¹
Substance: N-acetyl-*Asp-*Phe-*Glu-*Glu-*Ile-Pro-Glu-Glu-Tyr-Leu-Gln [N-acetyl-Hir(55-65), anti-thrombin peptide]
affinity for human thrombin compared with the same site on human prothrombin (thrombin [1]): higher affinity
pKd (human prothrombin [2]): 3.52 to 4.00

pIC50 (thrombin [4]): ~7.70
time for the cleavage at the Arg47-Pro48 peptide bond to complete (thrombin [5]): > 60 h
Substance: Phe-Asp45-Pro-Arg-Pro-Gln-Ser50-His-Asn-Asp-Gly-Asp55-Phe-Glu-Glu-Ile-Pro60-Glu-Glu-Tyr-Leu-Gln65 (FDPRPQSHNDGDFEEIPEEYLQ; Anti-thrombin peptide) [FD22]

koff (human α-thrombin; residue Leu64 (FD22-C fragment), simultaneous fit at three α-thrombin concentrations): ~400 s⁻¹
koff (human α-thrombin; residue Phe56 (FD22-C fragment), highest α-thrombin concentration only): ~400 s⁻¹
koff (human α-thrombin; residue Tyr63 (FD22-C fragment), simultaneous fit at three α-thrombin concentrations): ~100 s⁻¹
Substance: Pro-Gln-Ser50-His-Asn-Asp-Gly-Asp55-Phe-Glu-Glu-Ile-Pro60-Glu-Glu-Tyr-Leu-Gln65 (PQSHNDGDFEEIPEEYLQ; Anti-thrombin peptide) [FD22-C]

Source: patent US20050287527A1, “Quantitative ranking of transient ligand binding to target biomolecules” (National Research Council of Canada, priority 2002, published 2005)
